# From the DeepSol protein solubility set
# Test: soluble on expression in E. coli; label from the status in PepcDB or PDB records
row,Sequence,soluble on expression in E. coli
1,MNVTIYDVAREASVSMATVSRVVNGNPNVKPSTRKKVLETIERLGYRPNAVARGLASKKTTTVGVIIPDISNIFYAELARGIEDIASMYKYNIILSNSDQNQDKQLHLLNNMLGKQVDGIIFMSGNVTEEHVEELKKSPVPVVLAASIESTNQIPSVTIDYEQAAFDAVQSLIDSGHKNIAFVSGTLEEPINHAKKVKGYKRALTESGLPVRDSYIVEGDYTYDSGIEAVEKLLEEDEKPTAIFVGTDEMALGVIHGAQDRGLNVPNDLEIIGFDNTRLSTMVRPQLTSVVQPMYDIGAVAMRLLTKYMNKETVDSSIVELPHRIEFRQSTK,soluble
2,MNVVLVGTDPNGLTDALEAEGHTVMVADVGNRPGLEEAGIHEADVYLLTEMSQATSIAVAKDLNPDLRVVVYAEGSLPDFASRQTDLVVDPDLLGSDAVAEEL,not soluble
3,MNWKQEFSRWLSYAELDAELKEQLENMKQDEKKIEDSFYKNLEFGTGGMRGELGAGTNRLNVYTVRKATQGLAKFIEKLGEEAKKRGVVVAYDSRHKSPEFAMEVAATLGAHGITTYVFESLRPTPVLSFAVRHLHTVSGIVLTASHNPPEYNGYKVYGEDGGQLPPKEADELISYVNAVEDELTVEVADVEQLKADGLLHMIGQEVDDAYAAELNNVIINKEMVQKVGKDLKIVFTPLHGTSNLSVRRGLAEVGFTDVTVVKEQELPDPNFSTVKSPNPEEHAAFEYAIRDGEKVGADVLIATDPDADRLGVAVRNHDGEFQVLTGNQTGALMLDYLLSQKKENGTLPENGVVLKTIVTSEIGRTIAKAYGLDTVDTLTGFKFIGEKIKQYEESGQYEFQFGYEESYGYLIRPFCRDKDAVQSVLFACEVAAYYKSQGKTLYDGLLEVFEKYGFFREDLVSLTLKGKDGAEQIQEMMATFRENPPKEVAGLTVVAVEDYKASIITSLQDGHKEEIHLPKSNVLKYQLEDGSWFCLRPSGTEPKIKFYFGVQDNSLQNSEQKLLTIKEDIMNRL,not soluble
4,MNWLDICSLDEINPLGSRVVAGPKGDIAIFRAADDQVFALDDRCPHKGGPLSQGLIYGKRVACPLHNWQIELESGEAVAPDQGCAHRHPVRVENGRVLLGLDSVALCA,not soluble
5,MNYELMEPAKQARFCVIWLHGLGADGHDFVDIVNYFDVSLDEIRFIFPHADIIPVTINMGMQMRAWYDIKSLDANSLNRVVDVEGINSSIAKVNKLIDSQVNQGIASENIILAGFSQGGIIATYTAITSQRKLGGIMALSTYLPAWDNFKGKITSINKGLPILVCHGTDDQVLPEVLGHDLSDKLKVSGFANEYKHYVGMQHSVCMEEIKDISNFIAKTFKI,not soluble
6,MNYHTFCPISCVSWLYQKIEDSFFLVIGTKTCGYFLQNAMGVMIFAEPRYAMAELEEGDISAQLKDYEELKRLCLQIKRDRNPSVIVWIGTCTTEIIKMDLEGLAPQLEAEIGIPIVTARANGLDYAFTQGEDTVLASMAHKCPTSAQVQGEDKELEHHHHHH,soluble
7,MNYIRKLYKQDYRGFESLPHRRENVIEKYSVKSQRPLLKKYLVEDFGGMCIYCGWNCKRYDAASFHIEHIKSQIDNESLIDDYSNLALSCPICNTTKNKKALPSDLDPLGEDYKNLFYRNNRGAIVTNNDIEDRKKALSQQYIKILGLSKELYKLDYVQTSLNIIKRRLRQSDKINLELINSITEILDFIDDNYTRQSNLTLLEHHHHHH,not soluble
8,MNYKSCFDIIGPIMIGPSSSHTAGALAIGLAARKLFGGTPEKIVIKYYESFADTHKGHGTDFAIIGGILGLAADDANVTQSIELAEEQGIEIQFLEMSEESPVKHANTACVTLSDATHEIHLTGISVGGGTIEVKYIELDGFNVQLHGPLPILLVINQEEQAMQAFKDTLQKNNIQVNAVSRYVEGNQILFIFDLDSAPISSVKEQLFSLDDTSKIILL,not soluble
9,MNYLQYYPTDVINGEGTRCTLFVSGCTHACKGCYNQKSWSFSAGVLFDDVMEQQIINDLKDTRIKRQGLTLSGGDPLHPLNVETLLPFVQRVKRECPDKDIWVWTGYKLDELDKQQRAMLPYIDVLIDGKFIQEQADPSLVWRGSANQIIHRFKLLEHHHHHH,soluble
10,MNYSPKQGVRSHGLPHDPFKSSTVPRPIGWISTVSKDGKDNLAPYSQYQNLTWDPPMVMFAANQSVLGDHERKDTVKNAEETGWFVWNMATYDLREAVNLSSKALPPEEDEFEYAGVTKEACIEAPGYRVKESPVHFECEYVQTIRIPTGDPVSTVDIVIGRVAQVHIDDKVILDNGKLDIKSIKPIARLGYYDYTVVNEIFEMKAPAASKEELAGLEGRNFDNQSDEKR,not soluble
11,MPAIEVIRSAKRTKTVQARIVDGQIQVRIPARMSKAEEEKAVGEIVAKLKRRTQSAVSSDADLIERAHKLNKTVLEGRARVESIRWVSNQKGRWGSCTVATAEIRISDRLKHVPDYVLDAVLVHELTHTFIAGHSAEFWEWADKTPLAERAKGYLEAYQRWGLEHHHHHH,soluble
12,MPAISMFYGIVIYLYFYDDERHKIPHIHAKYQGEDASVSIANGEILAGDIPLSKLRLVQAWIEIHRDALMADWALAVNGQPPFAIEPLRLEHHHHHH,not soluble
13,MPAIVCQSALEAVSLIRSGETLWTHSMGATPKVLLDALAKHALTLDNITLLQLHTEGAESLSHPSLLGHLRHRCFFGGVPTRPLLQSGDADYVPIFLSEVPKLFRSGEQKIDTAIIQVSPPDKHGMCSLGISVEATLAACQVAGKIIAHINPQMPRTHGDGFIHIDRFAAVYEQSASLPIHSFATGDAVSLAIGQHVAELVRDGDCLQMGIGAIPDAVLSCLTGHKDLGVHTELFSDGILQLVEKGVINNTKKRFYPGKLVTGFALGSQKLYDYVDDNPAVIFMDIEQVNDTSIIRKNPNVMAINSALQVDLTGQVCADSIGTKIYSGVGGQMDFIRGAGLSEGGRSVIALPSTAAGGRISRIASVLSPGAGVVTTRAHVHYIVTEYGAANLKGRSLRERAQALINIAHPDFREQLSRDAFEVWGLNLLEHHHHHH,soluble
14,MPAKSSSRTSATSSRRTILRLKVIPWERIISPFPSERGGSMSSLGIDIGGANLKVASKDGWEIIYFPMWREAERLEGKLREIAEKYSTAKAGVVMTAELADFFKSRAEGVEFIAKACKKAFEDVRFLDVEGNLKSDIDNPENFAASNWVASCRFLLEEAYRNFLFVDMGSTTTDIIPVTSKIEAAKTDFERLKRGELIYFGVLRTPVFYVLKEFEGAPLCPEFFAITADVFVTTGDIKEEDYSCDTPDGKGRSREECMRRLARTVCSDLEELGEEKVKELALEAKWAMIDRLSEVIEHKSKIYGLKTVFACGIGEFLIAEACEEAGAECRLISELYGDYSKLFPAYAMLKLVEQHLEHHHHHH,not soluble
15,MPANELFGDSDPEGDEIFERVRKVQPKSINVTENQKVDPMRKVKIELQAVLVAEKIPISTEEIRRRLLDSYGACPDPKRYNCSTLDDLLQACSESIVHTFGRDGIHRYGPRTTEANQDIIEMVQQQSSSKRPARSFLGSGATNNLSTHGSSFRAFRGPYASEEIAKSRGTPEQFKARHKLGPAKTISRVKNLAEVLKEYADEIGVSHPDEPNRKIVTLAALANKFKQLYCLPAWGKNISESELYIQLNVPPFNEYLHFWRLSEKGDIFVDCIDRDNADPTQKSEQNPSADVSIQSESFGGKSSASAFEQSVVSAPSTIRDQTSDSFDGFNSFEVPPENGSKDSKIFNSNQESIDDYPGNAISRDRTADMTDIALRFGTVSVASQQCPVSSSLVPQNGILRQSRAQEDDNNTSILTIQSSRRNHSVLRHRTIKPRNPTQNLAEVVKTHGSIPYEALSDCDKIIVDLGKNIFKVYATQPGEMMVRLCDPHVDTTTLPLLENNLRDPVESDLRWMTLGNSHIKKQSVKVVKPAMFIAPRGFLLILKDEEREEMDVEKVATMGNILRAVMVAPIVELQRETVRTGSAAVYVYRQGAEVRYYRVLIVGQAKQDGEVLVLLADVDDQYFVDVHLSHLFPIPEEASFKHFPSNVVFATLHGVLGLTLSEQDVMFENIDNDDTKRFVGGYFHGNDDRILNIDMVWKNERGQFEWLSQIVKRRGAVTSSDANIIHFPHSALDVIKSVGPDCSVCFVDYSVRDESATSSLMESTRIVHDSRESMTTTYVGEMPSPIIEEIDATSSFDPKLLNLHSLFDKLIEEQNVTMIVGMFQFVRSLKDLFGDNNEWERLLTYMLTTGKNNNIRL,not soluble
16,MPAYHSKFDTELKVLPLGNTNMGKLPIRTNFKGPAPQTNQDDIIDEALTYFKPNIFFREFEIKGPADRTMIYLIFYITECLRKLQKSPNKIAGQKDLHALALSHLLPIPGENGFPLNSMYKAPQSKPDEDEMRAYLQQIRQEIGARLCDLAFPDPQDRPSKWWLCFARRRFMDKGLVGQGVNL,soluble
17,MPCDFPGCGRIFSNRQYLNHHKKYQHIHQKSFSCPEPACGKSFNFKKHLKEHMKLHSDTRDYICEF,soluble
18,MPCFFFILDTSGSMSTRAHPQFSFFDLAKNFIENFIKQRTKGDNRMMVGRETDKYFLMTTQARYPKNVKVACEKLGAVVIEEIKKLHLPYGSCQLHHAILEAFKVLHVSRVQTGIDGVGIGRLISNTEPVTMILLTDGSGVAGIPIDFRLFFDPPFLGSEMTRDAFRWDQKFYTVVFRIPSTPYRPTISQLTAIDIDMPVIERLCARTGGRSFSIVSPRQIQTTIDYLLAMGNQYKIGVRFECLPAIPAPITSDEVNLVKMKFKKVIDKRPVTNIISRLNPQARPVTCHWPIPESFFPMRTMDQLPQRTSHPVILCAPIALPLHIRPELPVDKLELEPGGISDIIMEILQGRKDMTVWTYMEGSSNGPTAPFGCLRMNTLGTGITLILMPFNFPMLYSLVEEIVKEPFLNKSQVWRSKLESYFHTVPFYYNTQIRVCLDKFDVKVDYSSSMSMFYPGQLLSNLNRFKAKAREELDQMAIASKLNDSKTLKIVNPSIRIERITSRSTIIGLGNSEVDIEDDSLEGYESTPIYAGDFKIPLYPPSITDAQLDSAYRTPYSSPIEDLTSKLNRIQANIELMFDPNKITLLDMAKLGTKARFNTLGLCFFHPIFLANSTSRKFYIQKFETLQVMDSAVVDNNSPSTSGQPKRFGGEGRQGGGPPKRRRGPLGIDAYDQYRIRRSMRGSSAGSDISDISSSLGTFDQDSDMTTPGTSGMNTPISEFDDLQLQEMDSDDQLMKNLDEVQALRKKEEAQVQPKIKKPPPVPPASILSSQEILTRKIRIGSIIRKPANHCAFEEIMTLVAGITQEACSQLIKYALRESQRFKLKQLTERLENRLKTV,not soluble
19,MPCRLRKITVYETKSRFYIIGCDSTGSRYNVLKIDRIDPKALITGEPEYDYTREEILELLATISDGSSVVYRSSSKKGTKSGLIERATNAFGILGCVRFVEGYYLIIITRAHAVATLGYHPVYKIVEVAMIPIAMDGVSTSSEEQKYVKLFQSVDLSTDFYFSYSYDMSRTFQENSLRSDWNNHGQRRLEADERFVWNSFLLEPLRKNLISERWFVEIVHGYVRQEYIFLPIGRISLTIIGRRSTKYAGTRFLKRGANPTGNVANYVETEQIVWDMASSGNVADGRFSSFVQMRGSVPMRWSQDPSTRGVVGKPLILIDNHEPHAQTAASHFRDVRNKYGNPIVIMNLIKRNEKRRHEGVLHTQFLKNIEYLNQFLPNEEKLCYISFDVARCNKAANSMPSINVLNVMEDLSMKSILKNGWFQSFPLSEALKIRPREAFATLDAHHSKDGRFMIQHGICRTNCVDCLDRTNVAQFVIAKVALGCQLCAMGILDEPNLTLQSEVCRLLEDMFDEHGDTMALQYAGSQLVHSIKTYKKTAAFQERRRDVFQTLSRYYSNTFNDWDKQMAINLFLGVFRPRITTMKNLWDLTSDYNLHFPYSLKINTDYCAWTLSEKELEDLVFLDYDESENSDGYVEIRSIDVDGRRGSEGSEYRTLLFSSHEDFRDYHRTYEFTSLDDRIGRLFSIENRAIQVDGINEEPTTHAQFLKLWKTTETKEKDQKKPNKKDKEEKESDDEDDDEEISTQWSDVVEAQQEWYDLVNAPGNVTTTLQKSPTKRESTPPRNTSRAKRSLLSTGLQFAKDIYHLDHLKTQPEERRYYEKYAITAFKCNVRDWEKVKPTLLSEFKITSEVEPRRPTFFTTDDCYRTESPEVSGNSARFYIKSSHPLTTECSAQDYGFFSKYMQAT,not soluble
